The experiment deals with αvβ3 integrin plaque-like cell/matrix areas in human preosteoblasts. The experiment can be described thus: Immunocytochemical localization of cell surface αvβ3 integrin plaques in non-permeabilized cells. The class given is cell-based. As to conditions: bone marrow stromal cells in osteogenic medium with 40 ng/ml OP-1 for 48 hours, non-strained, no Triton X-100; compare FIG. 1C with FIG. 2C. The method, then:
Bone marrow stromal cells grown to semi-confluence and then exposed to osteogenic medium containing 10 mM of β-glycerophosphate, 50 μg/ml ascorbic acid and 40 ng/ml of osteogenic protein OP-1(32) also referred to as bone morphogenetic protein-7 (BMP-7), for 48 hours were defined as preosteoblasts. These preosteoblast cultures are characterized by alkaline phosphatase activity of 80,000 nmole pNPP/min./μg protein, osteopontin expression, absence of osteocalcin expression, and mineralization after 14 days in osteogenic media. […]
Immunocytochemical analysis essentially was performed as previously described (34). […] The results were analyzed either on Zeiss Fluorescent Microscope (Axioscope) using a 63× oil immersion lens or on a Zeiss laser confocal microscope using a 63× lens. […]
In order to examine whether mechanical strain has a qualitative and/or quantitative effect on the localization and expression level of integrins, near-confluent human preosteoblasts and osteoprogenitors were strained on Flexcell Strain Apparatus, as described in Methods. […] In the presence of Triton X-100, which leads to cell permeabilization and thus, allows examination of the distribution of intracellular as well as cell surface molecules, the αvβ3 integrin, as detected by an anti-human αvβ3 antibody, was localized along actin fibers and in small, granular structures adjacent to actin fibers (FIGS. 1A, 1B, 2A and 2B). […]

B1: OP-1: osteogenic protein OP-1, also referred to as bone morphogenetic protein-7 (BMP-7), component of the osteogenic medium (protein, UniProt P18075 293-431, looked up)
Bone morphogenetic protein 7: STGSKQRSQNRSKTPKNQEALRMANVAENSSSDQRQACKKHELYVSFRDLGWQDWIIAPEGYAAYYCEGECAFPLNSYMNATNHAIVQTLVHFINPETVPKPCCAPTQLNAISVLYFDDSSNVILKKYRNMVVRACGCH
Regarding B1, the “number of the plaque-like cell/matrix areas of the αvβ3 expression” value was “stimulation”.

The values are drawn from US6713249B2, “Cell matrix plaques of initial bone formation” (Barnes-Jewish Hospital, priority 1998, dated 2004).
